Experimental data as given in a protein production outcome set (Wang et al. 2014).

Assay: label from the status in PepcDB records

Row | Sequence | protein production
1 | MSLNGNGSIELKGTVEEVWSKLMDPSILSKCIMGCKSLELIGEDKYKADLQIGIAAVKGKYDAIIEVTDIKPPYHYKLLVNGEGGPGFVNAEGVIDLTPINDECTQLTYTYSAEVGGKVAAIGQRMLGGVAKLLISDFFKKIQKEIAKSKQEASEGHHHHHH | not failed
2 | MYNSRESILSNPVQSAIVSISFFSVVAIIIIAIYPEILSPQRKMERIDDFVVIIATLTFLFIGLSLINSFGTDNMEYTYEALNNFFQGKNPYEMVYGPHTVQPTYTLSGGVASNFIYPPFSFIVYIPIYLLIKAFNLPGYVLNAENVIFAVILGLLLYKIGKEKDDPFALFPVIFLYIITAVSIPPFYGVPIVIASTFLALSYVKKNYLGGISLALAISFSQLSWLAFPFLLIYRIRSDNVGKQFLRSSYFLSFLITLSIINIPFLAWNPVRFIGNIITLNTQLIPVGQIGLTVISYSGLYPMEPWFFTIVFGVVAIFLTYLYYQLFDYLKEIIWLFPLIISWFLWRTLTEYFFMWIPLIFTSLFRTQYKLPTIKLNFKKKIVLPLLIIFVFLASLSVYAHESYVASNPLKIDEVYTLQNTPPYTALIIKVQNTKNEPVNITLVRVSIPNNLNMVWNSTETVIPPNSSALVFAYASNSLEAINSTPFTVQVYSEYYFATYTVNSTQ | failed
3 | MKNDTAALAADIVDFWKKAGPDKWFDKDAAFDNHFHDRFRDAHFAAARRELDGWLEGAESSLALMLLLDQFPRNCFRGTAHMYATDPLARFFADEAIRRGHDQAVSEDLRVFFYLPFSHAEDIAAQQRACDLNQPLGGLYLHHAEEHRDIVERFGRFPHRNGILLRETTPEERQYLEEGGFSG | not failed
4 | SLKLAKNVEIEIRTKIHPTESEDKVLKAIRNIFPDAEIEISEEGEVYGRAYSLDRFRELLRKQRILDTARSEILKGRNGKEVTIYLNKQTATVSRINFCDENAVLSPIKVTFRLNNIPFSRFLDYIAPETKDGRPVKEIDKL | not failed
5 | MVQTIIDPVILPFNGDDTKSSLLTGGDPPSAAELAAKTVEDQLPREANPTAPAVAPLSLSLEDLKAILATVTKDLSQRLTAGSTS | failed
6 | MEDGMNTFDLYYWPVPFRGQLIRGILAHCGCSWDEHDVDAIEGLMDCGAEKQPVAFMGPPVLIDRERNFAISQMPAIAIYLGERLDILPATVEGRTLSAKIVNDANDVLDELTLNGGREMWTPEKWQEFVPRLQKWIRIFADTGARNGLSAASGFMLGTEKIGVADIVTAILWTTVADRFPAIKGIIEDTSPIIWGLSRRVVATAPLAALNSKSFEEYGNAYCGGEIEKSLRKVAS | not failed
7 | DLEFQKGVEQILNQYFNSELASGNTKYSEGVYAVVLNPNTGAVLSMAGLEHDLKTGEVSSNALGAVTEVFTPGSVVKGATLTAGWENGVLSGNQVLNDQPIQFAGSSPINSWFTNGSTPLTASQSLEYSSNTYMVQLALKLMGQDYHSGMTLSTDGYKEAMEKLRATYAQYGLGVSTGIDLPGESKGYTPEHYDPSNVLTESFGQFDNYTAMQLAQYAAAVANGGKRIAPHLVEGIYDNNKTGGLGNLVQSIDTKVLNNVSISSDDMGIIKEGFYNVVNGGSYATGKTLAKGASVPISAKTGTAEAYVTGDDGKSVYTSNLNVVAYAPSSNPQIAVAVVLPHETDLHGTTSHAITRDIINLYQKMYPMNQ | failed
8 | QGSVSTNLQEKGLVVSIVDTLMFDTGRAEVKPDFQKKLVEIGEILKTIDNYIRIEGHTDNTPISNSQYASNIELGSARSNNVEHLFIDVSKIPVTQMYTVSYADTRPVADNNSEAGKARNRRVDIVILNSK | failed
9 | MPESRVKSEPSPAPYWRRNVRLIVLLLACWAGLTFVPAYFARQLAFDFIGWPFSFWMAAYGAPLAYLILIVIYALVMNRFDARSRTRRDD | failed
10 | MDKTYILPIPNEYQNLARELSMQSGKIYSKAVSFLKKINRKGLRIKQKTFYRYMEWWIHQKSFILHSQSKQAAYQQAWTNYTATLRKIKKAKKKNKNTSKIRLPYRNKKYNKVCFKDSAIKLEGDNLILVNMKGAERIVIDNVRIGIKPKYAELLYHADKGKYYVHVVVEIAKEQEAKKRSGKTIAIDLGVIHPMVCFDGNKVVVYNGGVLNSILRYRNKKQSLLQSKISGCQKGSKRRGKLQRAKTKLLRRLSNLIRDVLGKYTSHLIGYCVENGITTIVMGDVKGIRNSKKKSNKVASQKVHQWLFRKISKMIEQKAEFAGIEVVYVKENMTSQICPVCGSKNKPLDRNYECKSCGFRYHRDGVGAVNIYRKYTGESLVVGRLACPTGVRFKSHLRCPVEWNTHPWDKNCSTGKVA | failed
11 | MSEVKKTKVHLISGFLGTGKTTALKSLMAQKDPNEKWVIIVNEFGEIGIDGAVLSDNGIPVAEIAGGCLCCTAGPQMGVTVQKMLRDAKPDRLMIEASGLAHAASVIDELKAKPLDSLLEIGAVFTVVDPRQFINPDYAQQALYKDQIGICDVLAASKTDLCTPEQLAEFHDKAAKLFPPKAKVVEVQNAQLDIQWLDIPVVEKSRYRLKALPDNTMGFQSQGFTFPAGRDFNGEKLTNFFNDLPKMTEGLVRAKGVFQVLGTWVWLNWVDGQWGANQVSWRRDSRFELIAKSFDADLIEQKLKDALELEHHHHHH | not failed
12 | QIAELPYAMRINNSFEARKSPHAFVNLLNYILLEKSGADIACTALFDSANGFDEKITMRDIINNYPFPNTFKVIELSGKDIKLAIERSASYFDIVNHKITVNKEFLEPKPQHFNYDIFAGIQYTIHVSHPYGERVSDLLINDAPIQSDQIYTICVNNYRAVGGGNYDMYVNKPVIKDIQIEGAQLLIDYLSHNDLSQIPQVIDFNVVK | failed
13 | MENVKKCKNFLSTLIKLASSGKQSTETAANVKELVQNLLDGKIEAEDFTSRLYRELNSSPQPYLVPFLKRSLPALRQLTPDSAAFI | failed
14 | MTEEQLQALRAAISVCRRCRDEPARGEGHRLPHEPRPVAVLSASARILIAGQAPGLRVHESGLPFNDASGDRLRQWLSVDRAAFYDQRNFAIVPMGFCFPGYDRHGSDLPPRSECAPLWRQRAMDAMPQIELVLAVGHYAQRWHLGTDCPKSMTETVRNWQRYAKRNSGISVLPLPHPSWRNTGWLRRHPWFEAELLPFLRERVQALTI | failed
15 | MAIKSISSSLLTRVLSVYFLLTLIVTAIQIGAEYFDTKRVLIAELQNQQSTFNGSLTRSLWEFNSNQIDTIADGLISIPAIAGVLIRDDAGNILVQLGETTEMSDLPDDNSEGALLPERNGIFGYYDSLIFEFSGHSTKVGDVSLFSTRDIAIDRIKVSLGFIIGNAIIKSIFLIVLFTIAFNRMLNRPLSDLTQQIKGFRLDNLERSRIRLDDQHNNELVLVEQAYNQLLDNIEEYQSDLDRTQKKLKAANRQLDEQNAILEQEVARKTSSLSQVMLDLEQRKNELEMRQEKLEREVGQRRAIENTLRQSNQRLESSLNNLRETQQQLIESEKMASLGGLVAGITHDVNTPIGISVTASSYLREKLDTLDQSLLNKELTQTQLKKFIEEGRESLNLLDSNLHRASDLISSFKQVAVDQASDAIRDINLKSYIEDLVQSLQPHLKKTNHQVRLECADDIFIRCPAGALSQIFTNLILNSLRHAFDGISEGLMIISIRLDGETLQVHYSDNGNGLSEAQLKRLFDPFFTTKRDQGGSGLGTHIVRNLVTQTLSGEISAESEPGKGLSYFFSFSVQVLN | failed
16 | MVDSYDDSLDGEKSKTQVKRELHALVDLGERLTTLKADVLAKLPLTDALRKALAEAPKHTANIARKRHILFIGKLMRDQDQEAILVLLDQLDASTRQYNERFHNLERWRDRLIAGDDADLEKFVIEYPDADRQQLRSLIRQAQHEVARNKPPATSRKIFKYIRELDELQ | not failed
17 | MGGCPVRKRRRNGSKEGNHHSTQPKRNKRNPIFQDSQDTEFSWSDNERSSSRINIPERASGPEGNLNQIVTEPDANFPQFLHEGLSKPVYVINWFMSFGPEIKLNTSQQGRNQAV | failed
18 | QKVQDAAMQEDPKALDEVVIVARQNINELDIRAKSGVVQRVDVERLNSKPMIDMSLALQGAVPGLIITNTGDLGSKPEIRIRGNSSFRKGDMANEPLYVMDGKVISSDAFMTLNPADIQEIKVLKDAVACALYGIKAANGVIEITSQRGNPDG | failed
19 | MEDIIFGKRSNVFDVNPENTVFVLIAGTSEVSTVPGITSAGATPELTRLTPAIDSEIIGEGKCLSSKDPPMTPEGIPTPAIVTKAILSLTNIRYIIVNGGFYAKPKTPFIETGLKPSNNPAVKTAIEDLDAAIHAGEHIGRLLDGVFENIILAESVPGGTTTAYAVLKAIGINAKTSSSMKEDPFSIKEKIAEMSFRRKLEKSPLGAVKEYGDNMMAVSLGISSSVKRSKIIFGGGTQMATVMYLDRLINGMRDRYISTTGWVYYHRTELFSDLGLSDYLAVSAMDFSGMKHPGLRYYQYGHVREGTGMGAAFLLARLMNFEAEAIYKSVDDFYEQFI | failed
20 | MENTKKSPTYVYALGGLEEIGKNTYVVEHEDEIILIDAGIKFANASLPGFDGTVANFDYLIKNNHKIHSLVVTHGHEDHIGGIPHILRHVKIKTIYAPTLAAKLIERRLSEYKDIKPPRIIVFEDESMYKTKYFEVDFYRVCHSIPDSFGICVKTPNGYIVTTGDFRFDFATAGDETNLAKISQISNRGISVLMCESTSAEIPGFSESERYVIDNIRDYMVNIKGRTFISTFASNLGRVEEIIAIAVGLNKKICIIGKSMEANIKTSRKLGYLNVPESSFITHKELPFYKDHEIVVILTGSQGEKMAALNVMANNNHSKITLKPSDTIILSSNPIPGNYAQVEAMVNKLYKLGLTVYENSPNKKIHASGHATRSEHQLMIKAINPSYLFPIHGEYKMFRALKQNAVDQGFDKDHVIIAPNGQKLQLLDGVLSHTNIYVDAEPKFINGYEISSKISKLLSERVVLSSDGILNLVLNADFKKAKLNSAVSISTRGCFFAKESTNLINKISNVAKSSLEEALAKKEFDEKKLKEIVSGNVKSIVWKWRKKNPIINVTIINNDLVEQFRKDNNYVEFIKQAEVEEIEQEVDIDDLISNGL | failed
21 | MPSLTPRCIIVRHGQTEWSKSGQYTGLTDLPLTPYGEGQMLRTGESVFRNNQFLNPDNITYIFTSPRLRARQTVDLVLKPLSDEQRAKIRVVVDDDLREWEYGDYEGMLTREIIELRKSRGLDKERPWNIWRDGCENGETTQQIGLRLSRAIARIQNLHRKHQSEGRASDIMVFAHGHALRYFAAIWFGLGVQKKCETIEEIQNVKSYDDDTVPYVKLESYRHLVDNPCFLLDAGGIGVLSYAHHNIDEPALELAGPFVSPPEEESQHGDV | not failed
22 | SLNEGQEMEEQFALLLETLKNQQMNEFRELFLALHIYEQGQFYQSLDEKDRQHLYNYLSPKELADMFDVIEEDNENMKDYLAEMRPSYAADMLAEMYTDNAVDLLNMLDKSQKAKYLSLLSSEEAGEIKELLHYEDETAGAIMTTEFVSIVANQTVRSAMYVLKNQADMAETIYYVYVVDQENHLVGVISLRDLIVNDDDTLIADILNERVISVHVGDDQEDVAQTIRDYDFLAVPVTDYDDHLLGIVTVDDIIDVIDDEAASDYSGLAGVDVEEVSENPLKAASK | not failed
23 | MQRVLGFSTCSYSWIAQSFNRFHPRCIQPTCFRSKVTKLCPKRPRSSLLSDNNATKYPQKAIYLTAQVKLPQISEVQNATFDQCLPLARNICFRLQEEPQDENAYQVLKELLSREEGARAFFVEYLSDYELSLPDKKPPFKLEKLLKDCDEYVPNLLARNLAMSVAKEVDLANDSKNAENEEVDDTGSGSWSDSVEESSGGPTMVKERTALLIDSIASSEIARELVALWFSIRSRKGKYVHFLERQKFRKDQLDVIQRTLEVFIGA | failed
24 | MKAVANRYYVLCQEKVFIRSLLSGFFLLFISFLIMNFAGKYASLMAGNPVNDLILDNLPLRDVTLFHVNAAIIFWTIFTIYTLLNPAFIPFITKSAALFILIRCAFISMTHLGAPPNQLSIPDNFSSLVLFDGDLFFSGHVGGPFLMMLIFWNKTTLRYICLAAAVFFAYTVLIGHIHYSIDVFAAPFITYGIFHIGQFLFASDYQRLKSELTSSTGN | failed
